Experimental data: patent publication US20070026463A1, “Compositions and methods of mutant Nogo-66 domain proteins” (Wyeth, priority 2005, published 2007)

T1: human Nogo Receptor-1 protein (NgR1) (Homo sapiens, UniProt Q9BZR6)
T1 construct: expressed in transfected cells; host or cells: COS7
T1 sequence (Q9BZR6 27-447): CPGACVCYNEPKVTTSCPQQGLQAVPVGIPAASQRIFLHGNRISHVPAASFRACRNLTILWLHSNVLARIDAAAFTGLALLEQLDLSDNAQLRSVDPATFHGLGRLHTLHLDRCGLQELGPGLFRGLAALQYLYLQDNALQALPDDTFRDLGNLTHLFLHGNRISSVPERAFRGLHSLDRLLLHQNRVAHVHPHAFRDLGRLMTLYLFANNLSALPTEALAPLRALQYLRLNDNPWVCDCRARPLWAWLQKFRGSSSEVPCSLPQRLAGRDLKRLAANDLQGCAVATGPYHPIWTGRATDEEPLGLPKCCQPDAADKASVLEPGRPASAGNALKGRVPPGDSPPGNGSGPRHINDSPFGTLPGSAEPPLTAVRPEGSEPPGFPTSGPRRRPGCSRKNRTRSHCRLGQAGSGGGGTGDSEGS

T2: NgR1 (Homo sapiens, UniProt Q9BZR6)
T2 construct: expressed in transfected cells; host or cells: CHO
T2 sequence (Q9BZR6 27-447): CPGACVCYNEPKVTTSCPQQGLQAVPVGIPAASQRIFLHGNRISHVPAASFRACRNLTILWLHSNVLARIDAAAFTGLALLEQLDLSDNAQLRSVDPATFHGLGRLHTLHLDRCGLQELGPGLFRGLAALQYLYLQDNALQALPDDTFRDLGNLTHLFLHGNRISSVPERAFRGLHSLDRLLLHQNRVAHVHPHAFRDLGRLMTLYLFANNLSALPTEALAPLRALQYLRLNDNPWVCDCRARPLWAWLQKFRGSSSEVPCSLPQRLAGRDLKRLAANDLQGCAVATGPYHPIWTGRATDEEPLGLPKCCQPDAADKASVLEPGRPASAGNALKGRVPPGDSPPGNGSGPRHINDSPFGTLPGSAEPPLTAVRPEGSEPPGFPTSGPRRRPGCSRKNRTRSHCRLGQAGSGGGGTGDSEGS

T3: human Nogo Receptor-1 protein (NgR1) (human, UniProt Q9BZR6 27-447)
T3 construct: whole, on cells; also called NgR1 receptor
T3 sequence (looked up): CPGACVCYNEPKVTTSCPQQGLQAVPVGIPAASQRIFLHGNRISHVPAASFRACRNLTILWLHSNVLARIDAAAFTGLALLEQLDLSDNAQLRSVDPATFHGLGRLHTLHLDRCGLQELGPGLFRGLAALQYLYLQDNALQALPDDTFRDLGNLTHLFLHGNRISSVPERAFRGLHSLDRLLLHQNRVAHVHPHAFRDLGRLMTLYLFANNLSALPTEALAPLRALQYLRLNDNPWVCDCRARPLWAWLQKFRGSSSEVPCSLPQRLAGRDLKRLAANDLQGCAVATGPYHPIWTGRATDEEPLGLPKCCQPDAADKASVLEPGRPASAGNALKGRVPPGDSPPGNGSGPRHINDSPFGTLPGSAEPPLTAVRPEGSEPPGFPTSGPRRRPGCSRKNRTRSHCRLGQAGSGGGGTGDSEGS

B1: alkaline phosphatase mutant Nogo-66 domain fusion reporter protein (SEQ ID NO:16) (ligand)
chain: TSRSSGIIPVEEENPDFWNREAAEALGAAKKLQPAQTAAKNLIIFLGDGMGVSTVTAARILKGQKKDKLGPEIPLAMDRFPYVALSKTYNVDKHVPDSGATATAYLCGVKGNFQTIGLSAAARFNQCNTTRGNEVISVMNRAKKAGKSVGVVTTTRVQHASPAGTYAHTVNRNWYSDADVPASARQEGCQDIATQLISNMDIDVILGGGRKYMFRMGTPDPEYPDDYSQGGTRLDGKNLVQEWLAKRQGARYVWNRTELMQASLDPSVTHLMGLFEPGDMKYEIHRDSTLDPSLMEMTEAALRLLSRNPRGFFLFVEGGRIDHGHHESRAYRALTETIMFDDAIERAGQLTSEEDTLSLVTADHSHVFSFGGYPLRGSSIFGLAPGKARDRKAYTVLLYGNGPGYVLKDGARPDVTESESGSPEYRQQSAVPLDEETHAGEDVAVFARGPQAHLVHGVQEQTFIAHVMAFAACLEPYTACDLAPPAGTTDAAHPGNDDDDKLSRDKRIYKGVIQAIQKSDEGHPFRAYLESEVAISEELVQKYSNSALGHVNVTIKELRRLFLVDDLVDSLKHHHHHH
notes: Expressed in HEK293 cells and secreted; Used either purified on TALON resin or as conditioned medium; also called fusion protein; secreted alkaline phosphatase mutant Nogo-66 domain fusion reporter protein

Assays:
[1] = target: T1, human Nogo Receptor-1 protein (NgR1); assay: Binding of purified fusion protein to NgR1-expressing COS7 cells, colorimetric alkaline phosphatase staining; conditions: colorimetric staining based on associated alkaline phosphatase activity
Protocol: Purified fusion protein was assayed for binding to COS7 cells expressing the human Nogo Receptor-1 protein (NgR1). […] Thus, a non-aggregated fusion protein was created that can be used as a reagent to explore the interaction of Nogo-66 with its receptor, or receptors, as well as to identify agents interfering in that interaction (see Example 3).

NgR1 = target: T2, NgR1; assay: Cell-based chemiluminescent SEAP binding assay on CHO cells expressing NGR1; conditions: CSPD substrate
Protocol: A cell-based chemiluminescent SEAP (secreted alkaline phosphastase) assay was used to confirm binding between NgR1 and the fusion reporter protein having the amino acid sequence of SEQ ID NO:16.
On Day 1: CHO cells expressing NGR1 are seeded into each well of a Biocoat poly-D-lysine cellware 96-well plate (Becton Dickinson).
1. The medium is removed and cells are washed with 200 μl/well of HBAH (Hanks' balanced salt solution, bovine serum albumin at 0.5 mg/ml) at room temperature.
2. 100 μl of conditioned medium containing the fusion protein (i.e., conditioned medium prior to resin purification in Example 2 above) is added (or 2 μg of purified fusion protein can be added) to each well. The wells are incubated at room temperature for 90 minutes.
3. The medium is removed from the wells. The cells are washed six times with 200 μl HBAH at room temperature. For each wash, the HBAH is incubated with the cells for 5 minutes and the plates gently swirled.
4. The HBAH is removed. The cells are then fixed with 200 μl of fixative buffer (acetone-formaldehyde (60%, 3%, 20 mM HEPES, pH 7.0)) for 15 seconds at room temperature.
5. The cells are then washed three times with HBS (Hanks' balanced salt solution), 5 minutes each time at room temperature.
6. Buffers are equilibrated to room temperature. […]
16. Read the plates on a LMAXII Luminometer (Molecular Devices, Sunnyvale, Calif.). […]

[2] = Aggregation of purified fusion protein by polyacrylamide gel electrophoresis; assay type: physicochemical; conditions: protein purified from HEK293 conditioned medium by TALON metal affinity chromatography
Protocol: The cDNA (SEQ ID NO:15) of the full-length fusion protein was inserted into the pSMED2 mammalian expression vector and the predicted sequence was confirmed by standard means. The vector was transfected into HEK293 cells and after 48 hours the medium in which the cells were grown was collected (referred to as conditioned medium) (see Example 2). After transfection, the conditioned medium was assayed to determine whether the fusion protein was secreted from the cells. The presence of the fusion protein in the conditioned medium was verified by Western blotting using an antibody against the alkaline phosphatase portion of the fusion. The fusion protein was purified from conditioned medium by TALON (BD/Clonetech) metal affinity chromatography (via the 6 His-tag of the fusion protein) (see Example 2).

[3] = target: T3, human Nogo Receptor-1 protein (NgR1); assay: colorimetric alkaline phosphatase staining of COS7 cells expressing human NgR1
Protocol: Purified fusion protein was assayed for binding to COS7 cells expressing the human Nogo Receptor-1 protein (NgR1). Binding was confirmed by colorimetric staining of NgR1 expressing cells based on associated alkaline phosphatase activity conferred by the fusion protein (see Example 3). Thus, a non-aggregated fusion protein was created that can be used as a reagent to explore the interaction of Nogo-66 with its receptor, or receptors, as well as to identify agents interfering in that interaction (see Example 3).

| Molecule | binding to COS7 cells expressing human NgR1 [1] | binding to NgR1 (NgR1) | aggregation state (bands of higher molecular weight) [2] | aggregation state (bands of higher molecular weight) ([2]; listed as fusion protein) | binding result [3] |
| --- | --- | --- | --- | --- | --- |
| SEQ ID NO:16: Fusion of signal peptide, human placental secreted alkaline phosphatase portion, enterokinase site, human Nogo-66 domain with Cys47 to Val, His6 tag | Binding was confirmed | can bind to NgR1 | does not aggregate | not aggregated |  |
| B1 |  |  |  |  | binds |
